Results on five molecules are retold here after patent publication US7049122B2, “Mutant-type lipases and applications thereof” (priority 2001, dated 2006).

The subject of data set [1] is CCCC(=O)Oc1ccc([N+](=O)[O-])cc1. Description: Kinetic analysis of hydrolysis of p-nitrophenyl butyrate (p-nitrophenol formation), mutant M419A. In kind it is biochemical, Staphylococcus epidermidis. The following applies: other: M419A, substrate p-nitrophenyl butyrate, 50 mM phosphate buffer (pH 6.0), 37° C., means ± standard error, three experiments. The text has this:
(§1) The mutant-type lipase is preferably obtained from site-directed mutagenesis of a lipase isolated from Staphylococcus, most favorably Staphylococcus epidermidis. The mutant lipase from Stapylococcus epidermidis that has an alanine residue replacing the methionine residue which immediately follows the serine residue of the Ser-His-Asp catalytic triad has the amino acid sequence of SEQ ID NO: 15. The mutant lipase from Stapylococcus epidermidis that has an isoleucine residue replacing the valine residue which immediately follows the histidine residue of the Ser-His-Asp catalytic triad has the amino acid sequence of SEQ ID NO: 17.
(§2) The purified enzymes and substrate p-nitrophenyl butyrate (2.64 mM predissolved in 2.1% Triton X-100) were mixed in 50 mM phosphate buffer (pH 6.0). The reactions were carried out at 37° C. for 15 min and were terminated by the addition of acetone (1:1, v/v) (Kazlauskas 1994). The absorption values of the reaction product (p-nitrophenol) at 346 nm were determined, and the hydrolase activity (a general indicator for the lipolytic activity) of the purified enzymes was obtained, after converting the absorption values into mmols of p-nitrophenol quantity (at pH 6.0) curve. The molar extinction coefficient of p-nitrophenol under this condition was 2988[…].
(§3) The mutation apparently affected the enzyme's ability to stabilize the transition state more than it affected the substrate binding ability of the enzyme. […] The kcat/Km ratio is the pertinent parameter to determine kinetic efficiency of an enzyme.

Data set [2] shares this test system. The data set can be described thus: Kinetic analysis of hydrolysis of p-nitrophenyl butyrate (p-nitrophenol formation), wild-type lipase. In kind it is biochemical, Staphylococcus epidermidis. The following applies: other: wild-type, substrate p-nitrophenyl butyrate, 50 mM phosphate buffer (pH 6.0), 37° C., means ± standard error, three experiments.
Source text: (§4) A fragment of the gehC gene (designated “Lys-303” gene), which encoded an amino acid sequence corresponding to that of the S. epidermidis lipase following proteolytic cleavage between Ala-302 and Lys-303, was synthesized by polymerase chain reaction (PCR) using a chromosomal DNA from a S. epidermidis isolated from a patient in Chang-Gung Hospital (Keelung, Taiwan) as template. The gehC gene is a Staphylococcus epidermidis strain 9 lipase gene. The gene consisted of a single open reading frame of 2064 nucleotides, which encoded a protein of 688 amino acids with a predicted molecular mass of 77 kDa. The Lys-303 gene (SEQ ID NO:13) encoded an active lipase (SEQ ID NO:14), which was about 43 kDa in molecular weight. The Lys-303-encoded lipase is also known as the “43 kDa” or “wild-type” lipase. Two primers: an N-terminal primer of SEQ ID NO:1 (5′-[…]-3′) and a C-terminal primer of SEQ ID NO:2 (5′-[…]-3′) were used in this synthetic process.
as §2, §3

Data set [3] has the same test system. The data set can be described thus: Kinetic analysis of hydrolysis of p-nitrophenyl butyrate (p-nitrophenol formation), mutant V649I. In kind it is biochemical, Staphylococcus epidermidis. The settings on record: other: V649I, substrate p-nitrophenyl butyrate, 50 mM phosphate buffer (pH 6.0), 37° C., means ± standard error, three experiments.
Source text: as §1, §2

For data set [4] the test system is unchanged. The data set can be described thus: Kinetic analysis of hydrolysis of p-nitrophenyl butyrate (p-nitrophenol formation), mutant H648K. It is filed as biochemical, Staphylococcus epidermidis. The following applies: other: H648K, substrate p-nitrophenyl butyrate, 50 mM phosphate buffer (pH 6.0), 37° C., means ± standard error, three experiments. The procedure: as §2

A further data set concerns S. hyicus lipase. The following applies: Chang et al. (1996); cited from earlier work.
The target in data set [5] is Staphylococcus epidermidis strain 9 lipase variant H648K (His-648 to Lys), SEQ ID NO:16 (Staphylococcus epidermidis, UniProt P0C0R3, H648K). Description: Kinetic analysis of hydrolysis of p-nitrophenyl butyrate (p-nitrophenol formation), mutant H648K. The following applies: H648K vs wild-type, substrate p-nitrophenyl butyrate. It is filed as biochemical. Here is the method:
as §2

Data set [6] has as its target Staphylococcus epidermidis strain 9 lipase variant M419A (Met-419 to Ala), SEQ ID NO:15 (Staphylococcus epidermidis, UniProt P0C0R3, M419A). Description: Kinetic analysis of hydrolysis of p-nitrophenyl butyrate (p-nitrophenol formation), mutant M419A. In kind it is biochemical. The following applies: M419A vs wild-type; substrate p-nitrophenyl butyrate.
Source text: as §1, §2, §3

Data set [7] addresses Staphylococcus epidermidis strain 9 lipase, wild-type (recombinant 43 kDa "Lys-303" lipase, C-terminal His-tag), SEQ ID NO:14 (Staphylococcus epidermidis, UniProt P0C0R3). The data set can be described thus: Kinetic analysis of hydrolysis of p-nitrophenyl butyrate (p-nitrophenol formation), wild-type lipase. It is filed as biochemical. The following applies: substrate p-nitrophenyl butyrate, 50 mM phosphate buffer (pH 6.0), 37° C., means ± standard error, three experiments.
Source text: as §4, §2, §3

Data set [8] concerns the target Staphylococcus epidermidis strain 9 lipase variant V649I (Val-649 to Ile), SEQ ID NO:17 (Staphylococcus epidermidis, UniProt P0C0R3, V649I). Description: Kinetic analysis of hydrolysis of p-nitrophenyl butyrate (p-nitrophenol formation), mutant V649I. The following applies: V649I vs wild-type; substrate p-nitrophenyl butyrate. It is filed as biochemical.
Source text: as §1, §2

Chain of Staphylococcus epidermidis strain 9 lipase variant V649I (Val-649 to Ile), SEQ ID NO:17 (P0C0R3 303-688 V649I): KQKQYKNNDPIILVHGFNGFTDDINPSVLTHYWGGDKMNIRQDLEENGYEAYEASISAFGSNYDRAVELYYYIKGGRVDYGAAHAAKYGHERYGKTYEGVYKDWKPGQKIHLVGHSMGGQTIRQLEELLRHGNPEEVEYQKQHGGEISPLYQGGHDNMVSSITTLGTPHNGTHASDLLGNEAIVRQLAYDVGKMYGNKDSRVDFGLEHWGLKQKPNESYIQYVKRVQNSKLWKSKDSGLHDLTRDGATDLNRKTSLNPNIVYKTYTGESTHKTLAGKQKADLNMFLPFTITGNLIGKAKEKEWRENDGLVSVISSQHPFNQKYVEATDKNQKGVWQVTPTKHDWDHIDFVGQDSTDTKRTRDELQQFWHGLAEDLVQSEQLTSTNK
Chain of Staphylococcus epidermidis strain 9 lipase variant H648K (His-648 to Lys), SEQ ID NO:16 (P0C0R3 303-688 H648K): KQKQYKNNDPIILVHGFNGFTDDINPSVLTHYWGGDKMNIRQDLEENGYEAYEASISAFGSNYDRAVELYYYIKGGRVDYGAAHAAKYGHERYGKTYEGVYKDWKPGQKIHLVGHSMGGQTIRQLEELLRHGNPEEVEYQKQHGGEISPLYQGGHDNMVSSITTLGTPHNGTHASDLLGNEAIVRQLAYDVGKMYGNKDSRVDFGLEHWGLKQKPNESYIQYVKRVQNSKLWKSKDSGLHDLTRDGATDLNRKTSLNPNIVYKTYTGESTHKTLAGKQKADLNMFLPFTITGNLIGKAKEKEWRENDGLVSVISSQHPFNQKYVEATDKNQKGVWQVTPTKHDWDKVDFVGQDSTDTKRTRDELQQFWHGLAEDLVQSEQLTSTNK
Chain of Staphylococcus epidermidis strain 9 lipase variant M419A (Met-419 to Ala), SEQ ID NO:15 (P0C0R3 303-688 M419A): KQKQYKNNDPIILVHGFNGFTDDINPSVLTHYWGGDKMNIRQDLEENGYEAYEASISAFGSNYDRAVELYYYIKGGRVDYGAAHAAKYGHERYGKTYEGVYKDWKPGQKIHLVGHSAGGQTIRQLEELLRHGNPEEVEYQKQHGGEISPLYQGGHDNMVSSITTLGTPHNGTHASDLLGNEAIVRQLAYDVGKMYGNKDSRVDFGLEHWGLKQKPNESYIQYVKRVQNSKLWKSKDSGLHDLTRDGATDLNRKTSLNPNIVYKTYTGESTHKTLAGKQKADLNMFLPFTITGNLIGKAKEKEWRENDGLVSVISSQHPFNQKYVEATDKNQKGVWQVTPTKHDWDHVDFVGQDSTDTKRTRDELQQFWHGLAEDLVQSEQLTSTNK
Chain of Staphylococcus epidermidis strain 9 lipase, wild-type (recombinant 43 kDa "Lys-303" lipase, C-terminal His-tag), SEQ ID NO:14 (P0C0R3 303-688): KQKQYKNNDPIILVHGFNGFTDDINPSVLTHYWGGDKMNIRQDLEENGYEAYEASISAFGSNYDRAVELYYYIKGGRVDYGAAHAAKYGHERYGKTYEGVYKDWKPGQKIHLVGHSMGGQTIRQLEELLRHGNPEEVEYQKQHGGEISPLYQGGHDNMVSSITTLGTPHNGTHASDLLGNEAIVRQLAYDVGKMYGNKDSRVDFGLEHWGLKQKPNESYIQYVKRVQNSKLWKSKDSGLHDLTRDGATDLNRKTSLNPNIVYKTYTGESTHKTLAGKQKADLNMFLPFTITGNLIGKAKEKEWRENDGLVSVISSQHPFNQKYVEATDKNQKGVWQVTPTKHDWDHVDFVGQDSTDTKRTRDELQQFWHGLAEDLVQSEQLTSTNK

The term Km denotes the concentration of substrate that gives half-maximal velocity. One may read the kcat as the number of substrate molecules converted per active site and unit of time at saturation. Broadly, the kcat/Km is the turnover number divided by the Michaelis constant. As for “Staphylococcus epidermidis strain 9 lipase variant M419A (Met-419 to Ala), SEQ ID NO:15 (Staphylococcus epidermidis; M419A)”, in data set [1], the Km is 3970 ± 120 µM, the kcat was 218 ± 14 s⁻¹ and the kcat/Km was 54800 M⁻¹ s⁻¹.

Consider “Staphylococcus epidermidis strain 9 lipase, wild-type (recombinant 43 kDa "Lys-303" lipase, C-terminal His-tag), SEQ ID NO:14 (Staphylococcus epidermidis)”, for which, in data set [2], the Km was 900 ± 80 µM, the catalytic constant (kcat) was found to be 25.1 ± 0.6 s⁻¹ and the kcat/Km was 27900 M⁻¹ s⁻¹.

For “Staphylococcus epidermidis strain 9 lipase variant V649I (Val-649 to Ile), SEQ ID NO:17 (Staphylococcus epidermidis; V649I)”, in data set [3], the Km was determined as 3020 ± 210 µM, the kcat is 336 ± 15.7 s⁻¹ and the kcat/Km came out at 111000 M⁻¹ s⁻¹.

For “Staphylococcus epidermidis strain 9 lipase variant H648K (His-648 to Lys), SEQ ID NO:16 (Staphylococcus epidermidis; H648K)”, in data set [4], the Michaelis constant (Km) is 950 ± 350 µM, the catalytic constant (kcat) was 2.6 ± 0.9 s⁻¹ and the kcat/Km was found to be 2700 M⁻¹ s⁻¹.

`CCCC(=O)Oc1ccc([N+](=O)[O-])cc1` [p-nitrophenyl butyrate]: in the data set with S. hyicus lipase, the Km is 2070 µM, the kcat was 0.53 s⁻¹ and the kcat/Km was 257 M⁻¹ s⁻¹. The “kcat compared with the wild-type enzyme (decreased to)” value in data set [5] is 10.4%. For the same molecule, the “change in the Km compared with the wild-type enzyme” value in [5] (in words) is “little change”. In addition, the “increase in catalytic efficiency (kcat/Km) in comparison with the wild-type enzyme” value in data set [6] was 2.0 fold. Moreover, the kcat in data set [7] stood at 25.1 s⁻¹. In [8], the “increase in kcat in comparison with the wild-type enzyme” value was 13.4 fold and the “increase in the kcat/Km in comparison with the wild-type enzyme” value came out at 4.0 fold.
